In patent US20220064294A1 (ARCUS BIOSCIENCES, published 2022):

How the values were obtained:
[1] = target: T1, human TIGIT, full length, on cells (human, UniProt Q495A1 22-244); test: cell-based or functional assay
T1 sequence: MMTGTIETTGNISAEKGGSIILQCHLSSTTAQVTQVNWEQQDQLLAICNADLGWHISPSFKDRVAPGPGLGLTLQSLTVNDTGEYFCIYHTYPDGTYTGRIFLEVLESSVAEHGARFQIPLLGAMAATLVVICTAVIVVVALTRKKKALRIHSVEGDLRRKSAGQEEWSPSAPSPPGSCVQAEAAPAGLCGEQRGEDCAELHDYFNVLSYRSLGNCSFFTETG

[2] = target: T1, human TIGIT, full length, on cells; test: flow cytometry, inhibition of hCD155-Fc binding to CHO-hTIGIT cells
Method: The activity of Hu24F8.1-IgG1.AA and Hu24F8.2-IgG1.AA to block the interaction of TIGIT with CD155 was analyzed by flow cytometry using CHO cells stably overexpressing human TIGIT (CHO-hTIGIT) and human CD155-Fc fusion recombinant soluble protein (hCD155-Fc), as described in Example 1. […] The IC₅₀ for Hu24F8.1-IgG1.AA to block the TIGIT-CD155 interaction was 0.68 nM, and for Hu24F8.2-IgG1.AA it was 0.67 nM.

[3] = target: T2, cTIGIT-His (cynomolgus monkey); test: SPR, Biacore T200, antibody captured on anti-human IgG chip, cTIGIT-His as analyte
T2 construct: also called His-tagged cyno TIGIT protein extracellular domain; soluble cTIGIT-His
T2 chain: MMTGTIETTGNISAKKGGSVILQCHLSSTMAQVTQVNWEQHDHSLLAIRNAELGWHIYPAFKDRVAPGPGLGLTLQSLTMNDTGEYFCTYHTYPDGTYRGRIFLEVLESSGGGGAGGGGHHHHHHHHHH
Method: (§1) The purified, full-length antibodies Hu24F8.1-IgG1.AA (containing VH1+VL2) and Hu24F8.2-IgG1.AA (containing VH2+VL2), together with the full-length chimera antibody of 24F8 mouse VH+VL and human IgG1/kappa constant domains (Ch24F8), were analyzed by SPR using a Biacore T200 instrument with antibody capture using an anti-human IgG coated chip and soluble hTIGIT-His or cTIGIT-His as the analyte.

[4] = target: T3, hTIGIT-His (human); test: SPR, Biacore T200, antibody captured on anti-human IgG chip, hTIGIT-His as analyte
T3 construct: also called His-tagged human TIGIT protein extracellular domain; soluble hTIGIT-His
T3 chain: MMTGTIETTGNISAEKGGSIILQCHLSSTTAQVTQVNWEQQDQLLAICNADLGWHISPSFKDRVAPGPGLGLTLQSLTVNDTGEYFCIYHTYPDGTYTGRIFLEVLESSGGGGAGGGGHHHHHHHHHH
Method: as §1

[5] = target: T4, cynomolgus monkey TIGIT, full length, on cells (cynomolgus monkey); test: flow cytometry on stable CHO-K1 cells expressing cyno TIGIT (clone C10); cyno TIGIT, CHO-K1 clone C10, n=6
T4 construct: Whole entry of 312 amino acids; also called cyno TIGIT; cTIGIT
Method: (§2) Binding of antibodies Hu24F8.1-IgG1.AA and Hu24F8.2-IgG1.AA to TIGIT expressed on cell surface was examined by flow cytometry. Cells expressing TIGIT on cell surface were collected and incubated in 100 μL of HBSS Buffer in the presence (or absence) of various concentrations of antibody for 1 hr at 4° C. After washing with HBSS, antibody binding on cells was detected with 2 μg/mL of Alexa488-labeled goat anti-human IgG antibody (ThermoFisher Scientific, Cat #A-11013) for 30 min at 4° C. Cells were then washed and resuspended in PBS and subjected to flow cytometry using a Attune NxT flow cytometer (ThermoFisher Scientific, Waltham, Mass.). GeoMean of fluorescence intensity was obtained for the whole single cell population, and for transient transfection, non-transfected cells were used to gate for the positive binding cell population to obtain percent of positive cells. Data was calculated by GraphPad Prism using the standard 4-parameter curve fitting.
(§3) Stable CHO-K1 cell lines expressing human TIGIT (clone 2A7) and cyno TIGIT (clone C10) were used to test Hu24F8.1-IgG1.AA and Hu24F8.2-IgG1.AA for their binding to human TIGIT and cyno TIGIT, respectively, as described above. […] Hu24F8.2-IgG1.AA bound to human TIGIT with an EC₅₀ 0.29±0.15 nM (n=8) (FIG. 3A) and to cyno TIGIT with an EC₅₀ of 0.35±0.16 nM (n=6) (FIG. 3B).

[6] = target: T1, human TIGIT, full length, on cells; test: flow cytometry on stable CHO-K1 cells expressing human TIGIT (clone 2A7); human TIGIT, CHO-K1 clone 2A7, n=8
Method: as §2, §3

EC50 of luciferase reporter activity, TIGIT/CD155 Blockade Bioassay (Jurkat cells overexpressing TIGIT with CD155 aAPC/CHO-K1 cells) [1]: 3.35 nM
IC50 [2]: 0.68 nM
Kd [3]: 1.74 nM
koff [3]: 0.0014 s⁻¹
kon [3]: 806000 M⁻¹ s⁻¹
Kd [4]: 0.144 nM
koff [4]: 0.000145 s⁻¹
kon [4]: 1.01e+06 M⁻¹ s⁻¹
EC50 [5]: 0.237 nM
EC50 [6]: 0.447 nM
B1: Hu24F8.1-IgG1.AA (antibody, V domains shown)
VH: QVQLQESGPGLVKPSETLSLTCAVYGYSITSGYSWHWIRQPPGKGLEWIGYVHYSGSTNYNPSLKSRVTISVDTSKNQFSLKLSSVTAADTAVYYCARMDYGNYGGAMDYWGQGTLVTVSS
VL: EIVMTQSPATLSVSPGERATLSCKASQDVRTAVAWYQQKPGQAPRLLIYSASYRYTGIPARFSGSGSGTEFTLTISSLQSEDFAVYYCQQYYSTQWTFGGGTKVEIKR
notes: IgG1/kappa; also called Hu24F8.1 (VH1+VL2), IgG1/kappa with L234A/L235A
